Assay [1] has as its system gelatinase B secretion by SW480 β6 transfectants. Put plainly: Gelatinase B secretion by gelatin zymogram. The class given is cell-based, human. The following applies: 40 μM; 48 hours; serum-free; compared with controls. On the procedure: SW480 β6 transfectants were cultured under serum-free conditions for 48 hours in the absence/presence of the MEK inhibitor PD98059 (40 μM) or DMSO (vehicle control). Tumour-conditioned medium was assayed for gelatinase B by analysis of equal protein loads in a gelatin zymogram.

For assay [2], the system named is p42/p44 MAP kinase activity in WiDr cells. Put plainly: MAP kinase assay in WiDr cells after serum stimulation. In kind it is cell-based, human. The settings on record: WiDr wild-type; inhibitor 40 μM added one hour before serum. Here is the method:
(§1) Cultures of WiDr and HT29 mock and antisense β6 transfectants were established by seeding 1×10^6 cells/5 ml of culture medium in 25 cm^2 tissue culture flasks. Cells were incubated at 37° C. in humidified CO2 for 24 hours before serum starvation in serum-free medium for the next 16 hours. Foetal calf serum was then added to a final concentration of 10% for 30 mins before MAP kinase assays were performed. […] The ability of cells to transfer phosphate from [γ^32P]-ATP to a synthetic peptide that contains specifically a p42/p44 MAP kinase phosphorylation site was measured as described in the manufacturer's instructions. [^32P]-labelled peptides were spotted onto PE1-cellulose paper, unbound radioactivity was washed with 75 mM phosphoric acid and bound [^32P]-labelled peptides were measured by liquid scintillation counting. Protein estimation was performed on each cell lysate used and enzyme activity calculated as described in the manufacturer's instructions. […]
(§2) The effect of MEK (MAP kinase kinase) inhibitors U0126 and PD98059 on MAP kinase activity in WiDr and HT29 wild-type cells was tested in the absence/presence of serum. […] Serum was then added for 30 min and MAP kinase activity assessed before and after addition of serum. […]

Assay [3] has as its system p42/p44 MAP kinase activity in HT29 cells. Put plainly: MAP kinase assay in HT29 cells after serum stimulation. In kind it is cell-based, human. The following applies: HT29 wild-type; inhibitor 40 μM added one hour before serum. On the procedure:
as §1, §2

The subject of assay [4] is SW480 β6-expressing colon cancer cells. The settings on record: for inhibition of cell proliferation (WST-1): SW480 β6-expressing, 30 μm, 24 hours, serum-free medium, FIG. 29. In general terms: Formazan colour is commonly taken as a measure of viable cells.
Description: HT29 and SW480 β6-expressing colon cancer cell lines were seeded into wells of 96-well microtitre plates (Nunclon) in Dulbecco's Modified Eagle's Medium (DMEM) supplemented with 10% foetal bovine serum, glutamine, Hepes, and antibiotics. Seeding cell densities were 3×10^3 cells per triplicate well for each condition tested and after 24 hours incubation of cell cultures in 5% CO2, 100% humidity at 37° C., the culture medium was exchanged for serum-free DMEM medium supplemented with insulin, transferrin, selenous acid, hydrocortisone, non-essential amino acids, glutamine, Hepes and antibiotics containing either peptide [sequence] (SEQ ID NO. 2) alone or penetratin-peptide complex at a concentration of 10 μm for HT29 cells or 30 μm for SW480 β6-expressing cells. Cell cultures were incubated for a further 24 hours following which cultures were photographed (Kodak Techpan Film at 100 ASA setting) and the experiments terminated by addition of the cell proliferation reagent WST-1 (Boehringer Mannheim) to monitor effects of the peptide on cell growth.
SW480 mock and SW480 β6 transfectants were cultured in DMEM medium supplemented with 1% foetal bovine serum in the presence of 20 μM seq. […] Percentage inhibition was assessed by the WST-1 colorimetric dehydrogenase assay described in Example 6.
Growth inhibition of SW480 cells expressing full length wild-type β6 exposed to seq.4 coupled to penetratin or [sequence] (SEQ ID NO. 2) peptide coupled to penetratin (5, 10, 20, 30 μM in DMEM minus foetal bovine serum) but which peptide contained alanine substitutions at the four positions indicated was assessed.
In another assay the test system is HT29 colon cancer cells. Kind of assay: WST-1 cell proliferation assay in HT29 cells. In kind it is cell-based, human. The settings on record: 10 μm, 24 hours, serum-free medium, FIG. 28. Here is the method:
HT29 and SW480 β6-expressing colon cancer cell lines were seeded into wells of 96-well microtitre plates (Nunclon) in Dulbecco's Modified Eagle's Medium (DMEM) supplemented with 10% foetal bovine serum, glutamine, Hepes, and antibiotics. […] The cell proliferation reagent WST-1 is designed to be used for the non-radioactive, spectrophotometric quantification of cell growth and viability in proliferation and chemosensitivity assays. […]
In particular, at the termination of experiments, 30 μl of WST-1 was added to 270 μl culture medium volume in each microtitre well and the colour change quantitated in an ELISA plate reader by measuring absorbance of the formazan product at 450 nm (using a reference wavelength of more than 600 nm). The mean absorbance readings from triplicate wells (±standard error of the means) after subtraction of background control wells (culture medium without cells) was determined.

For the next assay, the target named is T1, ERK2 (Mus musculus, UniProt P63085).
T1 construct: made in house
T1 sequence (P63085 whole entry): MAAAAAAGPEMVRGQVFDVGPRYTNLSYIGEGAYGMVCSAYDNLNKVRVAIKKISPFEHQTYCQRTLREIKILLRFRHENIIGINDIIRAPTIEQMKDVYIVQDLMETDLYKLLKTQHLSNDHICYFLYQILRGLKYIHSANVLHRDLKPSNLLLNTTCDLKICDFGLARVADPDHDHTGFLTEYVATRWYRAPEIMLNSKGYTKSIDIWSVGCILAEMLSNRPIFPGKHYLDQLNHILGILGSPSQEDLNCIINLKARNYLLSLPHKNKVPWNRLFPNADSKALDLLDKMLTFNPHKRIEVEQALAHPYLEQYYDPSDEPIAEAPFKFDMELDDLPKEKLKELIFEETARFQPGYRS
Kind of assay: ELISA binding of ERK2 to biotinylated integrin cytoplasmic domain peptides. The following applies: for binding of ERK2 to integrin β subunit cytoplasmic domain peptides: corrected for non-specific binding, FIG. 34; for binding of ERK2 (thrombin cleaved): ERK2 cleaved from GST-ERK2 by thrombin, compared to seq. 4, FIG. 23; for binding of GST.ERK2 to shorter test peptides: range of peptide concentrations, seq. 4 compared to fragment 2, seq. 3 compared to seq. 4, FIG. 20; for binding of non-phosphorylated ERK2: over a range of concentrations of ERK2, compared to fragments 1, 3 and 4, FIG. 18. Here is the method:
Peptide fragments corresponding to regions of the cytoplasmic tail domain of the β6 subunit were screened in an enzyme-linked immunosorbent assay (ELISA) for binding with ERK2. The […] β6 cytoplasmic tail is shown in FIG. 16 as are the amino acid sequences for the cytoplasmic domains of the β1 to β3 subunits. In particular, four synthetic peptides designated fragment 1 to fragment 4 were prepared and biotinylated at the N-terminal end of each, respectively (Auspep Pty Ltd, Melbourne Australia).
(§3) Overlapping biotinylated fragments 1 to 4 were coated onto streptavidin coated polystyrene plates (Pierce, Rockford Ill. USA, Cat No. 15125) and the ELISA performed substantially according to manufacturers instructions. Briefly, wells are washed with 3×200 μl of wash buffer (TBS, 0.1% BSA, 0.05% Tween 20 or SuperBlock™ blocking buffer in TBS, Pierce, Prod. No. 37535) prior to addition of biotinylated peptides (100 μl) and incubation for 1 hr at room temperature to allow for capture of the peptides on the plate. Following another washing step, peptides were overlayed with GST-ERK, ERK (or JNK-1) alone at a volume of 100 μl per well, and the plates incubated for a further 1 hr at room temperature before removal of any unbound ERK by further washing.
Binding of ERK to the peptides is detected using 100 μl anti-ERK1/2 mAb SC1647 (Santa Cruz) as the primary antibody at a dilution of 1:700 (isotype matched antibody IgG2b is used as a control). This is followed by another washing step and addition of 100 μl rabbit anti-mouse antibody (Biorad) conjugated to alkaline phosphatase at a concentration of 1:1000 for 30 minutes again at room temperature. A 100 μl aliquot of detection reagent (alkaline phosphatase detection kit-Biorad) is then introduced into each well after a final washing step and allowed to react for 15-30 minutes at room temperature in the dark before absorbance is measured at 405 nm. All dilutions of peptides, MAP kinase and antibodies were performed using the wash buffer. GST-ERK is a fusion protein consisting of ERK coupled to glutathione-S-transferase and purified from host cells transfected with pGEX vector.
(In general: An ELISA detects its analyte on a solid surface through an enzyme-linked reagent.)

The target in a further assay is T2, JNK-1 (Homo sapiens, UniProt P45983).
T2 construct: purchased Santa Cruz
T2 sequence (P45983 whole entry, species assumed): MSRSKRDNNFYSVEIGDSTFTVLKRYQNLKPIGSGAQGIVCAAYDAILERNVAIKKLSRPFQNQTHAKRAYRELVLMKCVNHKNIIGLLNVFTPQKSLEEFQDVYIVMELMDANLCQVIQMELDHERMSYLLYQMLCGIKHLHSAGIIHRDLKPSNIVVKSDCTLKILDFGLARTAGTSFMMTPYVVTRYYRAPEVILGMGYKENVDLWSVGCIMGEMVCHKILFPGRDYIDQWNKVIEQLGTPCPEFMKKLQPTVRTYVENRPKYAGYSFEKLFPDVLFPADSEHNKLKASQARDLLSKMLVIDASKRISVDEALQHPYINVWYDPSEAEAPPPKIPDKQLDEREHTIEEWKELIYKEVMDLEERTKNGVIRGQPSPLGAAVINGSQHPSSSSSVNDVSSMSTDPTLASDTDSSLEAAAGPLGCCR
Put plainly: ELISA binding of JNK-1 to β6 cytoplasmic tail peptide. The settings on record: JNK-1 0.05-1.5 μm/100 μl; increasing peptide concentrations; FIG. 24. On the procedure:
as §3
Briefly, 0.05-1.5 μm/100 μl of JNK-1 (Santa Cruz) was aliquoted into wells of a 96 well culture place containing increasing concentrations of the β6 cytoplasmic domain tail peptide used in Example 3. For comparison purposes, non-phosphorylated GST-ERK2 (0.05-1.5 μm/100 μl) was aliquoted into wells containing β6 cytoplasmic tail peptide or peptide fragments 1 or 2, respectively. Binding of JNK-1 was detected using mouse anti-JNK-1 mAb SC 474-G (Santa Cruz) and HRP-conjugated goat anti-mouse antibody.

Where a SMILES comes first, the peptide text is derived from it. Where no end group is shown, it is not given here. The star is where a group is joined. Biotin = O=C1N[C@H]2[C@H](CS[C@H]2CCCCC(=O)*)N1

With `COc1cccc(-c2cc(=O)c3ccccc3o2)c1N` [PD98059], the “gelatinase B secretion” value in assay [1] was “reduced gelatinase B secretion”. Also, the “serum-stimulated MAP kinase activity” value in assay [2] and in assay [3] was “inhibitable” in each case. On to `N#CC(=C(/N)Sc1ccccc1N)/C(C#N)=C(\N)Sc1ccccc1N` [U0126], for which the “serum-stimulated MAP kinase activity” value in assay [2] and in assay [3] was “inhibitable” throughout. Consider `CC[C@H](C)[C@H](NC(=O)[C@H](CCCCN)NC(=O)[C@@H](NC(=O)[C@H](CCC(N)=O)NC(=O)[C@@H](N)CCCNC(=N)N)[C@@H](C)CC)C(=O)N[C@@H](Cc1c[nH]c2ccccc12)C(=O)N[C@@H](Cc1ccccc1)C(=O)N[C@@H](CCC(N)=O)C(=O)N[C@@H](CC(N)=O)C(=O)N[C@@H](CCCNC(=N)N)C(=O)N[C@@H](CCCNC(=N)N)C(=O)N[C@@H](CCSC)C(=O)N[C@@H](CCCCN)C(=O)N[C@@H](Cc1c[nH]c2ccccc12)C(=O)N[C@@H](CCCCN)C(=O)N[C@@H](CCCCN)C(=O)N[C@@H](CCCNC(=N)N)C(=O)N[C@@H](CO)C(=O)N[C@@H](CCCCN)C(=O)N[C@@H](C)C(=O)N[C@@H](CCCCN)C(=O)N[C@@H](Cc1c[nH]c2ccccc12)C(=O)N[C@@H](CCC(N)=O)C(=O)N[C@H](C(=O)NCC(=O)N[C@H](C(=O)N[C@@H](CC(N)=O)C(=O)N1CCC[C@H]1C(=O)N[C@@H](CC(C)C)C(=O)N[C@@H](Cc1ccc(O)cc1)C(=O)N[C@@H](CCCNC(=N)N)C(=O)O)[C@@H](C)O)[C@@H](C)O` [penetratin-peptide complex] (H-RQIKIWFQNRRMKWKKRSKAKWQTGTNPLYR-OH; N-terminus and C-terminus assumed), for which the “growth inhibition, dose response” value in assay [4] (SW480 full length wild-type β6, 5, 10, 20, 30 μM in DMEM minus foetal bovine serum, FIG. 33) is on record as “progressive inhibition of proliferation in a dose-response manner”. In addition, the “inhibition of cell proliferation (WST-1)” value (in assay [4]; with HT29 colon cancer cells) was “effective in inhibiting cell proliferation” throughout. For the compound “RARAKWDTANNPLYK (HOMO SAPIENS) [β3, peptide corresponding to a region of the β3 cytoplasmic domain]”, the “binding of ERK2 to integrin β subunit cytoplasmic domain peptides” value in the assay with ERK2 is on record as “also found”.

Take RSKAK (HOMO SAPIENS) [5 mer peptide]: the “binding of ERK2 (thrombin cleaved)” value in the assay with ERK2 was “Negligible binding”. For “RSKAKNPLYR (HOMO SAPIENS) [10(4), 4 is omitted]”, the “binding of ERK2 (thrombin cleaved)” value with ERK2 is listed as “Comparable binding”. As for “RSKAKWQTGT (HOMO SAPIENS) [seq. 3, 10 mer test peptide from the β6 cytoplasmic tail]”, the “binding of GST.ERK2 to shorter test peptides” value with ERK2 is on record as “substantially less”. Regarding “RSKAKWQTGTNPLYR (HOMO SAPIENS) [seq. 4, 15 mer fragment of the β6 cytoplasmic domain]”, the “inhibition of cell proliferation (WST-1)” value (in assay [4]; with HT29 colon cancer cells) was “Only the carrier penetratin-peptide complex was effective” throughout. The “binding of ERK2 to integrin β subunit cytoplasmic domain peptides” value in the assay with ERK2 was “significant binding”. Besides, in the assay with ERK2, the “binding of GST.ERK2 to shorter test peptides” value is on record as “no reduction in binding”.

In the case of “RSKAKWQTGTNPLYRGSTST (Biotin-RSKAKWQTGTNPLYRGSTST) [fragment 2, N-terminally biotinylated synthetic peptide of the β6 cytoplasmic tail]”, the “binding of non-phosphorylated GST.ERK2 to peptide fragment” value in the assay with ERK2 (GST.ERK2 0.25 μg/100 μl, peptide 1 μg/100 μl, FIG. 17) is reported as “significant binding”. For the same compound, in the assay with ERK2, the “binding of non-phosphorylated ERK2” value was “Significant binding”. Take “RSRARYEMASNPLYR (HOMO SAPIENS) [β5, peptide corresponding to a region of the β5 cytoplasmic domain]”: the “binding of ERK2 to integrin β subunit cytoplasmic domain peptides” value with ERK2 is reported as “also found”. Regarding “β6 cytoplasmic tail peptide: peptide of the cytoplasmic tail domain of the integrin β6 subunit (HDRKEVAKFEAERSKAKWQTGTNPLYRGSTSTFKNVTYKHREKQKVDLSTDS; HOMO SAPIENS)”, the “binding of non-phosphorylated ERK2” value with ERK2 is listed as “Significant binding”. Further, in the assay with JNK-1, the “binding of JNK-1” value is listed as “Significant binding”.

For the origin of these results see patent US8119594B1, “Method of modulating integrin mediated cellular activity and agents useful for same” (Inter-K Pty Limited, priority 1999, dated 2012).
